In the supplement of paper PMC9170038:

System: K4 kissing-loop RNA reporter
Assay: apparent KD of K4 kissing-loop reporter; higher = weaker reporter binding
Settings: Eterna round: R107
Procedure: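 RNA-MaP round R107: designed RNA switches with theophylline, tryptophan, arginine or FMN aptamers are transcribed on-chip within common flanks. They are titrated with a labelled K4 kissing-loop RNA reporter in RNA-MaP buffer (100 mM Tris pH 7.5, 80 mM KCl, 4 mM MgCl2), without ligand or with the indicated ligand. Median apparent KD per design.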

[1] = input ligand: theophylline 20 uM
[2] = input ligand: tryptophan 2.4 mM
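Also: bound reporter read as fluorescence of individual clusters on recovered sequencing chips by microscopy, with normalized cluster intensities fitted with a binding model.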

Row | Sequence | apparent KD of K4 kissing-loop reporter (input ligand: FMN 200 uM) [µM] | apparent KD of K4 kissing-loop reporter (input ligand: arginine 13.2 mM) [µM] | apparent KD of K4 kissing-loop reporter (input ligand: none) [µM] | apparent KD of K4 kissing-loop reporter [1] [µM] | apparent KD of K4 kissing-loop reporter [2] [µM]
1 | AACCACUCGUUACAUCACUAUCGAGUGGAACGAGGACCGGUACGGCCGCCACUCGAUAAGAUGCAGUGAUGUUGCAUCUAAGAAU [KL-SSTryp-A (BrourdMod)5 #dotplot2 strengthened] | 0.208 | 0.168 | 0.183 | 0.192 | 0.141
2 | AACGACUGGAUGAAUAACAUCUAGUCGAUUCGAGGACCGGUACGGCCGCCACUCGAGCUAACUGCGAGUGAUGUUCGAUAAUAAA [#OpenEnded 3] | 0.347 | 0.433 | 0.39 | 0.524 | 0.0966
3 | AACGCUUGAAUAACAAGCGAAAUAAAUUCGCGAGGACCGGUACGGCCGCCACUCGCUAACUGCGAGUGAUGUUCGAUAAUAAAAU [Mat - Mod of OpenEnded 3 - D15] | 0.103 | 0.0661 | 0.136 | 0.234 | 0.071
4 | AACUCUCAGGCAGCCGAGUGAUGUUCGGCCCGAGGACCGGUACGGCCGCCACUCGGGCCUGAGAGAGGUUAUCAAAGAUAGCCAA [#01 K4 Tryptophan A Same State] | 0.194 | 0.0752 | 0.0898 | 0.142 | 0.131
5 | AACUGUCAAGGACAACAUUACUGAGGUGAUACCAGCAUCGAAAGAUGCCCUUGGCAGCACCGACUUGCAGUGAUGUUGCAAGUAA [BrourdMod 11 - Jieux - Exclusion - Theophylline A] | 0.271 | 0.219 | 0.249 | 0.322 | 0.247
6 | AAGAAUGCAGGAAGGAGCGGCGGACGGAGUGAUGUUCCGGCUAGUGAUGUUAGCAAACACCGCCAGGUAGGUCGCCUGCUGCCCU [Same State Arginine B GF 6] | 0.207 | 0.127 | 0.171 | 0.153 | 0.151
7 | AAGCAGUCACUCGUAACCAUCGAAGAUGGUCGAGGACCGGUACGGCCGCCACUCGGAGUGAUGUUCCGAAGACUGCAAAAUAAAA [#SwitchBubble 12] | 0.237 | 0.238 | 0.299 | 0.292 | 0.607
8 | AAGCAGUCGCUCGAAGCCAUCGAAGAUGGGCGAGGACCGGUACGGCCGCCACUCGGAGUGAUGUUCCGAGGACUGCAAAAUAAAA [MatMod 5 - Jieux - Exclusion - Tryptophan A] | 0.418 | 0.246 | 0.321 | 0.263 | 0.409
9 | AAGCAGUCUCUUGUAGUCAUCGAAGAUGAACGAGGACCGGUACGGCCGCCACUCGGAGUGAUGUUCCGAAGGCUGCAAAAUAAAA [MatMod 18 - Jieux - Exclusion - Tryptophan A] | 0.3 | 0.297 | 0.309 | 0.404 | 0.324
10 | AAGGCCACGAGAAGGAGCGUGCUGUGGAGUGAUGUUCCAUUGUAGACCUAAGGUCUACGAGCACAGGUAGGUCGCUCGUGGUCAA [Omei KL Arginine B SS A v4] | 0.113 | 0.0974 | 0.0953 | 0.102 | 0.0996
11 | AAGGUCACUACUACAGUGAUGUUGUGGGAGCAGGAUAUGCAGAAAUGCAGAAGGGCUCGCUCCAGGUGACCGAAUGAAACAUUCA [whbob_SS_FMNA__2th174] | 1.5 | 0.882 | 1.78 | 1.14 | 1.14
12 | AAGUGAUGUUGUAGUGAUGUUGUGAUGUUGCAGGAUAUAUAGUGAUGUAGAAGGGUAUGUACAGAUUUUUUUUUUGAGUGAUGUU [ffdcmullin] | 0.112 | 0.0455 | 0.0738 | 0.059 | 0.0814
13 | AAGUGUCAUUAGACACACGCAUCUAUAAACUAGGAUAUGCUGAUAAGCAGAAGGAGUGAUGUUCCUUUCAUGAUGCGAAUUAAAU [#07 K4 FMN A Exclusion] | 0.224 | 0.123 | 0.113 | 0.135 | 0.111
14 | AAGUGUGUGGCGGCCGCCACUAGAAUCCAGUGAUGUUGGAGAUAUCACGUAAGUGAUAUCCAUCAUAGGACCGGGCCAUAUAGAA [Same State - Tryptophan B (Freestyle 18)] | 0.675 | 0.389 | 0.945 | 1.28 | 0.755
15 | AAGUGUGUGGCGGCCGCCACUAGAAUCCAGUGAUGUUGGAGUAAUCAAAUAAAUAAUAAUAAACAUAGGACCGGGCCAUAUAGAA [Same State - Tryptophan B (Freestyle 2)] | 0.154 | 0.138 | 0.147 | 0.134 | 0.129
16 | AAGUGUGUGGCGGCCGCCACUAGAAUCCAGUGAUGUUGGAGUUAUCAUAUAAAUGAUAAUCAACAUAGGACCGGGCCAUAUAGAA [Same State - Tryptophan B (Freestyle 7)] | 0.639 | 0.523 | 0.55 | 0.745 | 0.783
17 | AAUAAAAUCACGGCCGCCACUGAUACUAAUAUUAGCAGUGAUGUUGCUAUGUAUAAUUUAUUAAACAGGACCGGGUGAAUAUUUA [JR_ExcTryptoB_Sub015] | 0.159 | 0.129 | 0.126 | 0.15 | 0.114
18 | AAUAACUUGCAGUGAUGUUGCAAGAAAUCUCAGGAUAUCAGGAAACUGAGAAGGGAGUAUCCUGAGUAAACAUCACAUCUUAGGA [KL-SSFMN-A8] | 0.322 | 0.364 | 0.399 | 0.376 | 0.369
19 | AAUAAUAAUAAAUAAAGAUUGAUGAGCAAACGAGGACCGGUACGGCCGCCACUCGAGUGAUGUUCGAGAAGCUCAUCAAUCAUAA [AK4.8 Exc Tryptophan A] | 0.147 | 0.134 | 0.138 | 0.112 | 0.337
20 | AAUAAUCUAGGUGAUACCAGCUCAACAUGAGUGAUGUUCAUGAAAUAAUGUAGAGUUGAGAGCCCUUGGCAGCACCUAGAUAAUA [KL-SSTheoB5] | 0.264 | 0.222 | 0.239 | 0.178 | 0.24
21 | AAUACGCCGAAAGGAUAUAUAGAACAUCAAGGGCGCUGACUUUGCUAAAUCACAAGUGAUGUUUGUAUAGAAGGUUCGCAGUCAA [theeternabot_exclusion_KL_FMN_B_30] | 0.245 | 0.427 | 0.5 | 0.452 | 0.437

Row | Sequence | apparent KD of K4 kissing-loop reporter (input ligand: FMN 200 uM) [µM] | apparent KD of K4 kissing-loop reporter (input ligand: arginine 13.2 mM) [µM] | apparent KD of K4 kissing-loop reporter (input ligand: none) [µM] | apparent KD of K4 kissing-loop reporter [1] [µM] | apparent KD of K4 kissing-loop reporter [2] [µM]
22 | AAUGAUGAUUGACACAUUUACUAAAAGGAAGGAGCGGCGAAGUAGCCAGGUAGGUCGCCUUAUAGCAGUGAUGUUGCUAUUUGUU [JR_Nu_ExcArginiA_Sub027] | 0.059 | 0.106 | 0.0831 | 0.105 | 0.0762
23 | AAUGUACAAGUGAUGUUUGUACUUUCCGAAGGAGCGUCUAAUAAGACAGGUAGGUCGCGGAUUCUCUUAAUUAUCAGGUCAUUAA [JR_ExcArginiA_Sub017] | 0.0896 | 0.0813 | 0.0862 | 0.0806 | 0.0816
24 | AAUGUACAGGGAAGGAGCGUCGUCCAGUGAUGUUGGAGUUAAAUACCAGUGAUGUUGGUUAGGCAGGUAGGUCGCCCUAAAGUAG [#09 K4 Arginine B Exclusion] | 0.102 | 0.0714 | 0.0801 | 0.0865 | 0.0821
25 | AAUUAAGUGACGGCCGCCACUAGGGUGAUUUUUUUGUUUGAGUGAUGUUUUGAUGUUUGAUUUUGUAGGACCGGGUUAGGUGAUG [juhmullin] | 0.332 | 0.295 | 0.426 | 0.404 | 0.252
26 | AAUUAAUACAGAAGGAGCGUGUUUUUUAAUUUAUUUUCAUGAUCGAGUGAUGUUCGAUAUACACAGGUAGGUCGCUGUAUAUUUA [JR_SSArginiB_Sub008] | 0.0988 | 0.142 | 0.113 | 0.139 | 0.0921
27 | AAUUCAGUGAUGUUGGAAGGCAGGAGGGAUACCAGCGGAAAUAAACGCCCUUGGCAGCCCAAAUAUCCCAAAUAGAUAAUAAUUU [Same State - Theophylline A (Freestyle 1)] | 0.581 | 0.381 | 0.61 | 0.607 | 0.563
28 | AAUUUAUUAACUGAUACCAGACUUAAUUAAUUGUAAAUUACUAGUGAUGUUAGUGAUUCUGUCCCUUGGCAGCAGUAUUUAUUAA [JR_ExcTheophyB_Sub011] | 0.0983 | 0.12 | 0.113 | 0.139 | 0.0925
29 | ACACUUUACGUAGGAUAUGCGACGAGUGAUGUUCGUCAGGCGGCUUUAGAUUAUACAAGCCGCCUAGCAGAAGGACGGGCAGUGU [Araar] | 0.127 | 0.157 | 0.172 | 0.158 | 0.17
30 | ACAGUACCGGGAAGGAGCGUGAAUGAGAAUGGAUAUAGUGAUGUUAUGUAUACGAACGAAUCGCAGGUAGGUCGCCCGGAUCCCU [SSArgB.aD] | 0.563 | 0.507 | 0.65 | 0.722 | 0.529
31 | ACAUUAGCGAGUGAUGUUCGCUAAGACGAAGGAGCGCUCGCGAGAGCAGGUAGGUCGCGUCUAGUGUCACUGUACUAAAUAGUGA [Arg A SS t12] | 0.159 | 0.164 | 0.18 | 0.183 | 0.169
32 | ACGAAUCCAGCGGCCGCCACUAUUCGAUGAGUGAUGUUUAGGAGUAGAUCAUACCGCCGUGGUAAUAGGACCGGGCUCUUUGUAG [theeternabot_exclusion_KL_Trp_B_36] | 0.289 | 0.129 | 0.201 | 0.193 | 0.207
33 | ACGAUCAUGUCGGCCGCCACUGAGAGUAGUGAUGUUACUCUUUUCCUUUAGUUAUUAUAUUUUAUCAGGACCGGGACAUGUUCGU [JR_ExcTryptoB_Sub022] | 0.0883 | 0.0667 | 0.0723 | 0.0696 | 0.0779
34 | ACGCGCGCGAGUGAUGUUCGGAGCGGCUGGCAGGAUAUGUAGCAAUGCAGAAGGGUCGUGGCGGUGGGCGCGCAAGCGGCUGCCG [#2 Exclusion - FMN A Attempt #12 (HarryS)] | 0.187 | 0.318 | 0.396 | 0.399 | 0.371
35 | ACGUAGUUCUAGGAUACCAGCCAAGGAGGGUAGGACAAAAGUCCUGUAGCCAGUGAUGUUGGCCCUUGGCAGCCUAGAACUACGA [Omei KL Theo B Exc B v3] | 0.162 | 0.183 | 0.138 | 0.139 | 0.151
36 | ACGUGCACUAGUGAUGUUGGAAAAUAGGAAGGAGCGGGCGAAAGCCCAGGUAGGUCGCCUAAUAGCACGAGCCACGAAAGUGGCA | 0.376 | 0.514 | 0.645 | 0.774 | 0.522
37 | ACGUGCCCAGUGAUGUUGGAUAAAUAUGAAGGAGCGUGCGAAAGCACAGGUAGGUCGCAUAAUAGCACGAGCCACGAAAGUGGCA [#SwitchBubble 7 #K4Early #Sliding] | 0.179 | 0.2 | 0.181 | 0.245 | 0.134
38 | ACUAUCGAAAGAUAGUUCCCAGAGCUAGUAGAGGAUAUCUGGAAACAGAGAAGGCUACAAGAGUGAUGUUCUUCUAGCUUUGGGA | 0.403 | 0.291 | 0.316 | 0.337 | 0.349
39 | AGAACUGUCUGAGAUACCAGCCAAGGAGUGAUGUUCCGGCUCGACGAAACGUCGAGCCAUGGCCCUUGGCAGCUCAGACAGUUCA [Omei KL Theo B SS A v2] | 0.249 | 0.116 | 0.195 | 0.191 | 0.102
40 | AGACUACCACACUGUCAAUAGACAGUGGACUAGGAUAUGCUGAUAAGCAGAAGGAGUGAUGUUCCCAGGUAGUCAAUAAAAUAAU [FmnAX 13 G28+C66] | 0.215 | 0.205 | 0.225 | 0.322 | 0.246
41 | AGACUACUGAUAGGAUAUAACAUCCUAGUCGUAUACCGAAAGGUAUACGAAACCCUUCUAGUGAUGUUAGAAGGGUCGGUAGUCA [Omei KL FMN B Exc B v9] | 0.0798 | 0.0671 | 0.0809 | 0.0596 | 0.0694
42 | AGACUUCACCGAAGGAGCGACGUGGCCUAGUGAUGUUAGGCACGAGAGAAAUCUCGUGUACGUCAGGUAGGUCGCGGUGAAGUCA [Omei KL Arginine B SS C v7] | 0.909 | 0.648 | 0.939 | 0.862 | 0.816
